Laboratory results reported in US20190241648A1 (STATEN BIOTECHNOLOGY B V, published 2019).
Ends that are not written are not given here.

Key:
Assay in all cases: peptide microarray
ApoC3 peptide … L50A = biological target: T1, ApoC3 peptide … L50A (human, not fully specified; cyclic constrained)
T1 peptide: ARGWVTDGFSSAK
Text: (§1) Amino acids G41 and G46 were highly conserved; substitution of G41 by E, N or Q caused a decrease of spot intensities by ˜70% or higher, whereas exchange of G46 by N was hardly tolerated and resulting in 90% reduced spot intensities. […] Amino acid positions V43, D45 and K51 were also well conserved with a clear preference for the wild type amino acids and a certain tolerance particularly for conservative exchanges by Y, F and I (V43), A, E and K (D45) as well as by R (K51). […] Replacement of V43 by Y, however, increased spot intensity by two fold. Amino acid positions W42 and 48S were poorly conserved or even variable; both positions were susceptible for only a number of amino acid exchanges, and exchange by F, S and T (W42) or by E (S48) even caused a two- to three-fold increase of spot intensity. Amino acid positions A39 and R40 were variable.
(§2) Pre: staining of one of the ApoC3 peptide microarrays was done with the secondary antibody goat anti-human IgG (Fe) DyLight680 (1:5000) and control antibody mouse monoclonal anti-HA (12CA5) DyLight800 (1:2000) to investigate background interactions of the secondary antibody with the antigen-derived peptides that could interfere with the main assays. Subsequent incubation of other ApoC3 peptide microarrays with antibody samples was followed by staining with secondary and control antibodies as well as read-out at scanning intensities of 7/7 (red/green). The additional HA peptides framing the peptide arrays were stained as internal quality control to confirm the assay quality and the peptide microarray integrity.

ApoC3 peptide … G41C = biological target: T2, ApoC3 peptide … G41C (human, also: cyclic constrained)
T2 peptide: ARCWVTDGFSSLK
Text: as §1, §2

ApoC3 peptide … T44C = biological target: T3, ApoC3 peptide … T44C (human, not fully specified (bridges); also: cyclic constrained)
T3 peptide: ARGWVCDGFSSLK
Text: as §1, §2

ApoC3 peptide … S48C = biological target: T4, ApoC3 peptide … S48C (human, not fully specified; cyclic constrained)
T4 peptide: ARGWVTDGFCSLK
Text: as §1, §2

ApoC3 peptide … S49C = ApoC3 peptide … S49C (human, cyclic constrained)
Text: as §1, §2

ApoC3 peptide … L50C = biological target: T5, ApoC3 peptide … L50C (human, not fully specified; cyclic constrained)
T5 peptide: ARGWVTDGFSSCK
Text: as §1, §2

ApoC3 peptide … V43D = biological target: T6, ApoC3 peptide … V43D (human, not fully specified; cyclic constrained)
T6 peptide: ARGWDTDGFSSLK
Text: as §1, §2

ApoC3 peptide … G46D = biological target: T7, ApoC3 peptide … G46D (human, also: cyclic constrained)
T7 peptide: ARGWVTDDFSSLK
Text: as §1, §2

ApoC3 peptide … R40E = biological target: T8, ApoC3 peptide … R40E (human, not fully specified (bridges); also: cyclic constrained)
T8 peptide: AEGWVTDGFSSLK
Text: as §1, §2

ApoC3 peptide … V43E = biological target: T9, ApoC3 peptide … V43E (human, not fully specified; cyclic constrained)
T9 peptide: ARGWETDGFSSLK
Text: as §1, §2

ApoC3 peptide … F47E = biological target: T10, ApoC3 peptide … F47E (human, not fully specified (bridges); also: cyclic constrained)
T10 peptide: ARGWVTDGESSLK
Text: as §1, §2

ApoC3 peptide … V43F = biological target: T11, ApoC3 peptide … V43F (human, not fully specified; cyclic constrained)
T11 peptide: ARGWFTDGFSSLK
Text: as §1, §2

ApoC3 peptide … S48F = biological target: T12, ApoC3 peptide … S48F (human, not fully specified; cyclic constrained)
T12 peptide: ARGWVTDGFFSLK
Text: as §1, §2

ApoC3 peptide … A39G = biological target: T13, ApoC3 peptide … A39G (human, cyclic constrained)
T13 peptide: GRGWVTDGFSSLK
Text: as §1, §2

ApoC3 peptide … G46H = biological target: T14, ApoC3 peptide … G46H (human, not fully specified (bridges); also: cyclic constrained)
T14 peptide: ARGWVTDHFSSLK
Text: as §1, §2

ApoC3 peptide … G46I = biological target: T15, ApoC3 peptide … G46I (human, not fully specified (bridges); also: cyclic constrained)
T15 peptide: ARGWVTDIFSSLK
Text: as §1, §2

ApoC3 peptide … A39K = biological target: T16, ApoC3 peptide … A39K (human, cyclic constrained)
T16 peptide: KRGWVTDGFSSLK
Text: as §1, §2

ApoC3 peptide … R40K = biological target: T17, ApoC3 peptide … R40K (human, not fully specified (bridges); also: cyclic constrained)
T17 peptide: AKGWVTDGFSSLK
Text: as §1, §2

ApoC3 peptide … V43K = biological target: T18, ApoC3 peptide … V43K (human, not fully specified; cyclic constrained)
T18 peptide: ARGWKTDGFSSLK
Text: as §1, §2

ApoC3 peptide … G46K = biological target: T19, ApoC3 peptide … G46K (human, not fully specified (bridges); also: cyclic constrained)
T19 peptide: ARGWVTDKFSSLK
Text: as §1, §2

ApoC3 peptide … F47K = biological target: T20, ApoC3 peptide … F47K (human, not fully specified (bridges); also: cyclic constrained)
T20 peptide: ARGWVTDGKSSLK
Text: as §1, §2

ApoC3 peptide … V43L = biological target: T21, ApoC3 peptide … V43L (human, not fully specified; cyclic constrained)
T21 peptide: ARGWLTDGFSSLK
Text: as §1, §2

ApoC3 peptide … G46L = biological target: T22, ApoC3 peptide … G46L (human, not fully specified (bridges); also: cyclic constrained)
T22 peptide: ARGWVTDLFSSLK
Text: as §1, §2

ApoC3 peptide … G46N = biological target: T23, ApoC3 peptide … G46N (human, not fully specified (bridges); also: cyclic constrained)
T23 peptide: ARGWVTDNFSSLK
Text: as §1, §2

ApoC3 peptide … G46Q = biological target: T24, ApoC3 peptide … G46Q (human, not fully specified (bridges); also: cyclic constrained)
T24 peptide: ARGWVTDQFSSLK
Text: as §1, §2

ApoC3 peptide … G46T = biological target: T25, ApoC3 peptide … G46T (human, thioether (positions not given here); also: cyclic constrained)
T25 peptide: ARGWVTDTFSSLK
Text: as §1, §2

ApoC3 peptide … R40V = biological target: T26, ApoC3 peptide … R40V (human, thioether (positions not given here); also: cyclic constrained)
T26 peptide: AVGWVTDGFSSLK
Text: as §1, §2

ApoC3 peptide … S48W = ApoC3 peptide … S48W (human, cyclic constrained)
Text: as §1, §2

ApoC3 peptide … V43Y = biological target: T27, ApoC3 peptide … V43Y (human, not fully specified (bridges); also: cyclic constrained)
T27 peptide: ARGWYTDGFSSLK
Text: as §1, §2

ApoC3 peptide … T44Y = biological target: T28, ApoC3 peptide … T44Y (human, not fully specified (bridges); also: cyclic constrained)
T28 peptide: ARGWVYDGFSSLK
Text: as §1, §2

ApoC3 peptide … L50Y = biological target: T29, ApoC3 peptide … L50Y (human, not fully specified (bridges); also: cyclic constrained)
T29 peptide: ARGWVTDGFSSYK
Text: as §1, §2

B1: anti-ApoC3 antibody 14C7 (antibody, V domains shown)
VH: QVQVQESGPGLVKPSQTLSLTCTVSGGSITTNSYYWSWIRQPPGKGLEWMGAIDYSGDTYYSPSLKSRTSISRDTSKNQFTLQLTSVTPEDTAVYYCVSRIPTGEYWGQGTQVTVSS
VL: QTVVTQEPSLSVSPGGTVTLTCGLNSGSVTSSNYPDWYQQTPGQAPRLLIYNTNSRHSGVPSRFSGSISGNKAALTITGAQPEDEADYYCALYMGSDSVVFGGGTHLTVL
notes: it was detected with goat anti-human IgG (Fc); also called mAb 14C7; llama antibody 14C7
% of binding to wild-type peptide (ApoC3 peptide … L50A): 0% | % of binding to wild-type peptide (ApoC3 peptide … G41C): 14.8% | % of binding to wild-type peptide (ApoC3 peptide … T44C): 0% | % of binding to wild-type peptide (ApoC3 peptide … S48C): 56.8% | % of binding to wild-type peptide (ApoC3 peptide … S49C): 0% | % of binding to wild-type peptide (ApoC3 peptide … L50C): 0% | % of binding to wild-type peptide (ApoC3 peptide … V43D): 0% | % of binding to wild-type peptide (ApoC3 peptide … G46D): 0% | % of binding to wild-type peptide (ApoC3 peptide … R40E): 76.9% | % of binding to wild-type peptide (ApoC3 peptide … V43E): 0% | % of binding to wild-type peptide (ApoC3 peptide … F47E): 0% | % of binding to wild-type peptide (ApoC3 peptide … V43F): 68.9% | % of binding to wild-type peptide (ApoC3 peptide … S48F): 9.29% | % of binding to wild-type peptide (ApoC3 peptide … A39G): 93% | % of binding to wild-type peptide (ApoC3 peptide … G46H): 1.81% | % of binding to wild-type peptide (ApoC3 peptide … G46I): 0% | % of binding to wild-type peptide (ApoC3 peptide … A39K): 72.9% | % of binding to wild-type peptide (ApoC3 peptide … R40K): 58.1% | % of binding to wild-type peptide (ApoC3 peptide … V43K): 25.4% | % of binding to wild-type peptide (ApoC3 peptide … G46K): 0.24% | % of binding to wild-type peptide (ApoC3 peptide … F47K): 0.12% | % of binding to wild-type peptide (ApoC3 peptide … V43L): 429% | % of binding to wild-type peptide (ApoC3 peptide … G46L): 0% | % of binding to wild-type peptide (ApoC3 peptide … G46N): 10.4% | % of binding to wild-type peptide (ApoC3 peptide … G46Q): 0% | % of binding to wild-type peptide (ApoC3 peptide … G46T): 0% | % of binding to wild-type peptide (ApoC3 peptide … R40V): 57.5% | % of binding to wild-type peptide (ApoC3 peptide … S48W): 3.49% | % of binding to wild-type peptide (ApoC3 peptide … V43Y): 230% | % of binding to wild-type peptide (ApoC3 peptide … T44Y): 0% | % of binding to wild-type peptide (ApoC3 peptide … L50Y): 0.38%
